{
  "source": "paper PMC6679193",
  "about": "“Unraveling the Impact of Cysteine-to-Serine Mutations on the Structural and Functional Properties of Cu(I)-Binding Proteins” (International Journal of Molecular Sciences, 2019)",
  "binders": {"B1": {"name": "Atox1 metallochaperone, wild type (WT-Atox1) (natural protein, human)", "chain": "MPKHEFSVDMTCGGCAEAVSRVLNKLGGVKYDIDLPNKKVCIESEHSMDTLLATLKKTGKTVSYLGLE", "notes": "Human Atox1 copper metallochaperone"}, "B2": {"name": "MBD3-4_C268S_C271S_C370S_C373S mutant of ATP7B (SER-MBD3-4) (domain or fragment, human)", "chain": "SANQNFNNSETLGHQGSHVVTLQLRIDGMHSKSSVLNIEENIGQLLGVQSIQVSLENKTAQVKYDPSCTSPVALQRAIEALPPGNFKVSLPDGAEGSGTDHRSSSSHSPGSPPRNQVQGTCSTTLIAIAGMTSASSVHSIEGMISQLEGVQQISVSLAEGTATVLYNPSVISPEELRAAIEDMGFEASVVSESCSTNPLGNH", "notes": "The methods describe only the wild-type construct; also called MBD3-4(Ser); source: expressed and purified as WT-MBD3-4 (E. coli Origami 2, chitin beads, intein self-cleavage)"}, "B3": {"name": "CueR metalloregulator of E. coli, wild type (WT-CueR) (natural protein, UniProt P0A9G4 1-135, looked up)", "chain": "MNISDVAKITGLTSKAIRFYEEKGLVTPPMRSENGYRTYTQQHLNELTLLRQARQVGFNLEESGELVNLFNDPQRHSADVKRRTLEKVAEIERHIEELQSMRDQLLALANACPGDDSADCPIIENLSGCCHHRAG", "notes": "No cleavage is described; source: E. coli BL21, purified (Ni-NTA agarose)"}, "B4": {"name": "CueR_C112S (natural protein, E. coli, UniProt P0A9G4 1-135, looked up)", "chain": "MNISDVAKITGLTSKAIRFYEEKGLVTPPMRSENGYRTYTQQHLNELTLLRQARQVGFNLEESGELVNLFNDPQRHSADVKRRTLEKVAEIERHIEELQSMRDQLLALANASPGDDSADCPIIENLSGCCHHRAG", "notes": "E. coli CueR, same construct as m4, with C112S; source: E. coli BL21, purified (Ni-NTA agarose)"}, "B5": {"name": "CueR_C112S_C120S (natural protein, E. coli, UniProt P0A9G4 1-135, looked up)", "chain": "MNISDVAKITGLTSKAIRFYEEKGLVTPPMRSENGYRTYTQQHLNELTLLRQARQVGFNLEESGELVNLFNDPQRHSADVKRRTLEKVAEIERHIEELQSMRDQLLALANASPGDDSADSPIIENLSGCCHHRAG", "notes": "E. coli CueR, same construct as m4, with C112S and C120S; source: E. coli BL21, purified (Ni-NTA agarose)"}, "B6": {"name": "CueR_C120S (natural protein, E. coli, UniProt P0A9G4 1-135, looked up)", "chain": "MNISDVAKITGLTSKAIRFYEEKGLVTPPMRSENGYRTYTQQHLNELTLLRQARQVGFNLEESGELVNLFNDPQRHSADVKRRTLEKVAEIERHIEELQSMRDQLLALANACPGDDSADSPIIENLSGCCHHRAG", "notes": "E. coli CueR, same construct as m4, with C120S; source: E. coli BL21, purified (Ni-NTA agarose)"}},
  "key": {"[1]": {"target": "T1, ATP7B metal binding domains 3-4, wild type (WT-MBD3-4) (human, UniProt P35670 238-439)", "T1 construct": "The printed PCR primers encode a start at RPLSSAN and an end at TNPLGNH followed by a stop codon; Residues of the vector may remain after intein cleavage; also called ATP7B MBD3-4; ATP7B-MBD34; source: E. coli Origami 2, purified (chitin beads, intein self-cleavage with DTT)", "T1 sequence": "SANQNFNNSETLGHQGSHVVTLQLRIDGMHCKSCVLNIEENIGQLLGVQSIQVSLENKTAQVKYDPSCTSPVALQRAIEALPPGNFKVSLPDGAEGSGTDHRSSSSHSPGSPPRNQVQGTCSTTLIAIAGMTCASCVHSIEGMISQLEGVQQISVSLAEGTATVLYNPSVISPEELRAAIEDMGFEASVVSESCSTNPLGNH", "assay": "cross-linking; 0.1% glutaraldehyde, RT, 30 min or overnight, phosphate buffer (25 mM Na2HPO4, 150 mM NaCl, pH 8), read by SDS-PAGE; MBD3-4 at 50 uM or increasing concentrations, Atox1 at 50 uM; with or without Cu(I) at different ratios", "settings": "both partners purified"}, "[2]": {"target": "B2", "assay": "cross-linking; 0.1% glutaraldehyde, RT, 30 min or overnight, phosphate buffer (25 mM Na2HPO4, 150 mM NaCl, pH 8), read by SDS-PAGE; MBD3-4 at 50 uM or increasing concentrations, Atox1 at 50 uM; with or without Cu(I) at different ratios", "settings": "both partners purified"}, "[3]": {"target": "the molecule itself", "assay": "cross-linking; 0.1% glutaraldehyde, RT, 30 min or overnight, phosphate buffer (25 mM Na2HPO4, 150 mM NaCl, pH 8), read by SDS-PAGE; MBD3-4 at 50 uM or increasing concentrations, Atox1 at 50 uM; with or without Cu(I) at different ratios"}, "[4]": {"target": "the molecule itself", "assay": "cross-linking; 0.6% glutaraldehyde, RT, 30 min, phosphate buffer (25 mM Na2HPO4, 150 mM NaCl, pH 8), CueR at 20 uM, with or without Cu(I) at a 1:3 ratio, read by SDS-PAGE"}},
  "data": [
    {"binder": "B1", "values": [
      {"measurement": "binding result", "setting": "[1]", "result": "binds"},
      {"measurement": "binding result", "setting": "[2]", "result": "binds"}
    ]},
    {"binder": "B2", "values": [
      {"measurement": "binding result", "setting": "[3]", "result": "binds"}
    ]},
    {"binder": "B3", "values": [
      {"measurement": "stoichiometry N", "setting": "[4]", "result": 2}
    ]},
    {"binder": "B4", "values": [
      {"measurement": "binding result", "setting": "[4]", "result": "binds"}
    ]},
    {"binder": "B5", "values": [
      {"measurement": "binding result", "setting": "[4]", "result": "binds"}
    ]},
    {"binder": "B6", "values": [
      {"measurement": "binding result", "setting": "[4]", "result": "binds"}
    ]}
  ]
}
